Experimental findings from patent publication US20190002527A1 (CHILDREN S MEDICAL CENTER, published 2019) are described below.

Assay [1] concerns the target T1, CD98 (cluster of differentiation 98) (human, UniProt Q01650 1-507).
T1 construct: Endogenous CD98 in lysates of human HUVE or HEK293T cells; also called LAT1; transmembrane amino acid transporter CD98
In words: co-IP from transfected HEK293T cells, IP anti-CD98, blot anti-myc. From the text:
(§1) FIG. 2A depicts a schematic representation of TRPV4. […] The right panel gives the Western blotting for the expression of each transgene in total cell lysates of respective transfectants.

Assay [2] deals with T2, β1-integrin (human, UniProt P05556 21-798).
T2 construct: Endogenous β1-integrin in lysates of human HUVE or HEK293T cells; No signal peptide limits are stated; also called B1-integrin; ITGB1
In words: co-IP from transfected HEK293T cells, IP anti-β1-integrin, blot anti-HA.
From the text: as §1

Assay [3] has as its target T3, TRPV4 (transient receptor potential vanilloid 4) (human, UniProt Q9HBA0 1-871).
T3 construct: Endogenous TRPV4 in lysates of human HUVE or HEK293T cells, co-immunoprecipitation; also called TRPV4 membrane ion channel
The assay can be described thus: co-IP from transfected HEK293T cells, IP anti-TRPV4, blot anti-HA.
From the text: as §1

T1 sequence (Q01650 whole entry): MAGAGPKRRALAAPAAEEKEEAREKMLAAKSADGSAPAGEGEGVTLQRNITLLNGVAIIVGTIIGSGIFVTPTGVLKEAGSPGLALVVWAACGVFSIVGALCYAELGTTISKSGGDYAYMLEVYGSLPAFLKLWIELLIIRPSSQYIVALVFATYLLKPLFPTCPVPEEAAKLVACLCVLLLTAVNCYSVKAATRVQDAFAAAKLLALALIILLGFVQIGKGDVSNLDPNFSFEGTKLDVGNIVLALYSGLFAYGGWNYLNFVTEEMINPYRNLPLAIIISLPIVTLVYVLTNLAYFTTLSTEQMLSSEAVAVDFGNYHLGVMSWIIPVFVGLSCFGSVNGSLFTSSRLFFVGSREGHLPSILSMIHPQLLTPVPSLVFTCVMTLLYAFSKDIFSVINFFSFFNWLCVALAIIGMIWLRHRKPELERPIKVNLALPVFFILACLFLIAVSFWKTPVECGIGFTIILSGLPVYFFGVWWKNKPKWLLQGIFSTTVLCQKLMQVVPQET
T2 sequence (P05556 21-798 limits assumed): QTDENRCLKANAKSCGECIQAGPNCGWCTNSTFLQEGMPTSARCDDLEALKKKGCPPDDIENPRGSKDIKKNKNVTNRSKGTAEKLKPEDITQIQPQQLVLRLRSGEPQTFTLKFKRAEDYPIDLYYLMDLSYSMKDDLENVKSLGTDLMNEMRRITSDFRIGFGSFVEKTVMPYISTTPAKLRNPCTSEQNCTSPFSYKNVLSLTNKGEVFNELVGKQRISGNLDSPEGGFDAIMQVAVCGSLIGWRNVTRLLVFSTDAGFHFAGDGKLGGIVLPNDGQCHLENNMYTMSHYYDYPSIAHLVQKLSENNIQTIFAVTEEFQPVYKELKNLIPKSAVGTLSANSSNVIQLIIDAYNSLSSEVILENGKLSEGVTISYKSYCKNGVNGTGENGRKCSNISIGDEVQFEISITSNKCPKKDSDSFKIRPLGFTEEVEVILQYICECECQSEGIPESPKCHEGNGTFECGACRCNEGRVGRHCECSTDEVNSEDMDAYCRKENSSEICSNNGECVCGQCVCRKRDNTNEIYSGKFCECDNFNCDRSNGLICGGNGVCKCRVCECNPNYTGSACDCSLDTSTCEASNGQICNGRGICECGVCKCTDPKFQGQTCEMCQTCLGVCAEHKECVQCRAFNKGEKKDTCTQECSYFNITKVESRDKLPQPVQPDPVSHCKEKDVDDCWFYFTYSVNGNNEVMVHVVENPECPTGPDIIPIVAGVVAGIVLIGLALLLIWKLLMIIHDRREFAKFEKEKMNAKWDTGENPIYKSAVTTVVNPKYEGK

B1: myc-linked TRPV4 lacking all ankyrin repeat domains (ΔAR1-3) (other)
chain: MADSSEGPRAGPGEVAELPGDESGTPGGEAFPLSSLANLFEGEDGSLSPSPADASRPAGPGDGRPNLRMKFQGAFRKGVPNPIDLLESTLYESSVVPGPKKAPMDSLFDYGTYRHHSSDNKRWRKKIIEKQPQSPKAPAPQPPPILKVFNRPILFDIVSRGSTADLDGLLPFLLTHKKRLTDEEFREPSTGKTCLPKALLNLSNGRNDTIPVLLDIAERTGNMREFINSPFRDIYYQARGRFFQPKDEGGYFYMRRQDSRGNTVLHALVAIADNTRENTKFVTKMYDLLLLKCARLFPDSNLEAVLNNTRHLSRKFKDWAYGPVYSSLYDLSSLDTCGEEASVLEILVYNSKIENRHEMLAVEPINELLRDKWRKFGAVSFYINVVSYLCAMVIFTLTAYYQPLEGTPPYPYRTTVDYLRLAGEVITLFTGVLFFFTNIKDLFMKKCPGVNSLFIDGSFQLLYFIYSVLVIVSAALYLAGIEAYLAVMVFALVLGWMNALYFTRGLKLTGTYSIMIQKILFKDLFRFLLVYLLFMIGYASALVSLLNPCANMKVCNEDQTNCTVPTYPSCRDSETFSTFLLDLFKLTIGMGDLEMLSSTKYPVVFIILLVTYIILTFVLLLNMLIALMGETVGQVSKESKHIWKLQWATTILDIERSFPVFLRKAFRSGEMVTVGKSSDGTPDRRWCFRVDEVNWSHWNQNLGIINEDPGKNETYQYYGFSHTVGRLRRDRWSSVVPRVVELNKNSNPDEVVVPLDSMGNPRCDGHQQGYPRKWRTDDAPL
notes: also called TRPV4 lacking all three ankyrin repeat domains; not shown: myc tag
On to B1, for which, in assay [1], the binding result is “no binding”.

B2: HA-linked CD98 that lacks high homology domain (ΔHH) (other)
chain: MELQPPEASIAVVSIPRQLPGSHSEAGVQGLSAGDDSETGSDCVTQAGLQLLASSDPPALASKNAEVTVETGFHHVSQADIEFLTSIDPTASASGSAGITGTMSQDTEVDMKEVELNELEPEKQPMNAASGAAMSLAGAEKNGLVKIKVAEDEAEAAAACRELPAQKWWHTGALYRIGDLQAFQGHGAGNLAGLKGRLDYLSSLKVKGLVLGPIHKNQKDDVAQTDLLQIDPNFGSKEDFDSLLQSAKKKSIRVILDLTPNYRGENSWFSTQVDTVATKVKDALEFWLQAGVDGFQVRDIENLKDASSFLAEWQNITKGFSEDRLLIAGTNSSDLQQILSLLESNKDLLLTSSYLSDSGSTGEHTKSLVTQYLNATGNRWCSWSLSQARLLTSFLPAQLLRLYQLMLFTLPGTPVFSYGDEIGLDAAALPGQPMEAPVMLWDESSFPDIPGAVSANMTVKGQSEDPGSLLSLFRRLSDQRSKERSLLHGDFHAFSAGPGLFSYIRHWDQNERFLVVLNFGDVGLSAGLQASDLPASASLPAKADLLLSTQPGREEGSPLELERLKLEPHEGLLLRFPYAA
notes: Built from 'deletion of a 50 amino acid (160-210aa) high homology domain'; also called CD98 lacking the high homology domain; not shown: HA tag
Take B2: the binding result in assay [2] and in assay [3] was “no binding” throughout.
